Patent US20140287471A1, “VARIANT CBH I POLYPEPTIDES WITH REDUCED PRODUCT INHIBITION” (BP CORPORATION NORTN AMERICA INC., priority 2011, published 2014)
Where a chain is given by its changes, count along the chain named.

B1: 268Ser (protein, UniProt P62694 18-513, looked up, variant R268S)
Exoglucanase 1: QSACTLQSETHPPLTWQKCSSGGTCTQQTGSVVIDANWRWTHATNSSTNCYDGNTWSSTLCPDNETCAKNCCLDGAAYASTYGVTTSGNSLSIGFVTQSAQKNVGARLYLMASDTTYQEFTLLGNEFSFDVDVSQLPCGLNGALYFVSMDADGGVSKYPTNTAGAKYGTGYCDSQCPRDLKFINGQANVEGWEPSSNNANTGIGGHGSCCSEMDIWEANSISEALTPHPCTTVGQEICEGDGCGGTYSDNSYGGTCDPDGCDWNPYRLGNTSFYGPGSSFTLDTTKKLTVVTQFETSGAINRYYVQNGVTFQQPNAELGSYSGNELNDDYCTAEEAEFGGSSFSDKGGLTQFKKATSGGMVLVMSLWDDYYANMLWLDSTYPTNETSSTPGAVRGSCSTSSGVPAQVESQSPNAKVTFSNIKFGPIGSTGNPSGGNPPGGNRGTTTTRRPATTTGSSPGPTQSHYGQCGGIGYSGPTVCASGTTCQVLNPYYSQCL
B2: 268Cys (protein, UniProt P62694 18-513, looked up, variant R268C)
Exoglucanase 1: B1 Exoglucanase 1 with S251C
B3: 268Pro (protein, UniProt P62694 18-513, looked up, variant R268P)
Exoglucanase 1: B1 Exoglucanase 1 with S251P
B4: 411Ser (protein, UniProt P62694 18-513, looked up, variant R411S)
Exoglucanase 1: B1 Exoglucanase 1 with S251R, R394S
B5: 411Thr (protein, UniProt P62694 18-513, looked up, variant R411T)
Exoglucanase 1: B1 Exoglucanase 1 with S251R, R394T
B6: 411Gly (protein, UniProt P62694 18-513, looked up, variant R411G)
Exoglucanase 1: B1 Exoglucanase 1 with S251R, R394G
B7: 411Met (protein, UniProt P62694 18-513, looked up, variant R411M)
Exoglucanase 1: B1 Exoglucanase 1 with S251R, R394M
B8: 411Pro (protein, UniProt P62694 18-513, looked up, variant R411P)
Exoglucanase 1: B1 Exoglucanase 1 with S251R, R394P
B9: 268A+411Thr (protein, UniProt P62694 18-513, looked up, variant R268A R411T)
Exoglucanase 1: B1 Exoglucanase 1 with S251A, R394T
B10: 268A+411Cys (protein, UniProt P62694 18-513, looked up, variant R268A R411C)
Exoglucanase 1: B1 Exoglucanase 1 with S251A, R394C
B11: 268A+411Met (protein, UniProt P62694 18-513, looked up, variant R268A R411M)
Exoglucanase 1: B1 Exoglucanase 1 with S251A, R394M
B12: 268A+411Leu (protein, UniProt P62694 18-513, looked up, variant R268A R411L)
Exoglucanase 1: B1 Exoglucanase 1 with S251A, R394L
B13: 268A+411Val (protein, UniProt P62694 18-513, looked up, variant R268A R411V)
Exoglucanase 1: B1 Exoglucanase 1 with S251A, R394V
B14: 268Val+411A (protein, UniProt P62694 18-513, looked up, variant R268V R411A)
Exoglucanase 1: B1 Exoglucanase 1 with S251V, R394A
B15: 268Phe+411A (protein, UniProt P62694 18-513, looked up, variant R268F R411A)
Exoglucanase 1: B1 Exoglucanase 1 with S251F, R394A
B16: 268Trp+411A (protein, UniProt P62694 18-513, looked up, variant R268W R411A)
Exoglucanase 1: B1 Exoglucanase 1 with S251W, R394A
B17: 268Glu+411A (protein, UniProt P62694 18-513, looked up, variant R268E R411A)
Exoglucanase 1: B1 Exoglucanase 1 with S251E, R394A
B18: 268Arg+411A (protein, UniProt P62694 18-513, looked up, variant R411A)
Exoglucanase 1: B1 Exoglucanase 1 with S251R, R394A
B19: 268His+411A (protein, UniProt P62694 18-513, looked up, variant R268H R411A)
Exoglucanase 1: B1 Exoglucanase 1 with S251H, R394A
B20: 268Lys+411A (protein, UniProt P62694 18-513, looked up, variant R268K R411A)
Exoglucanase 1: B1 Exoglucanase 1 with S251K, R394A

Assay: 4-MUL cellobiose tolerance/inhibition assay, dose-response IC50 (Example 2)
Assay type: biochemical
Details: 268 single substitution; averaged IC50 from Tables 8-11; read-out: 268— Measured (merged IC50)
Procedure, shortened: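 CBH I variant supernatants (5 μg/mL final, or undiluted if lower) on 0.5 mM 4-MUL in 100 mM MES pH 6 with 25 mM gluconolactone, fluorescence ex/em 365/450 nm. Activity measured at 6–8 cellobiose levels up to 100 mM; IC50 from four-parameter fit, bottom constrained to knockout background.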

Molecule | IC50 [µM]
B1 | 500
B2 | 380
B3 | 520

Same assay, conditions: 411 single substitution; averaged IC50 from Tables 8-11; read-out: 411— Measured (merged IC50)

Molecule | IC50 [µM]
B4 | 870
B5 | 1970
B6 | 1810
B7 | 3340
B8 | 1130

Same assay, conditions: double mutant 268A+411X; averaged IC50 from Tables 8-11; read-out: 268A+411— Measured (merged IC50)

Molecule | IC50 [µM]
B9 | 11700
B10 | 10200
B11 | 11700
B12 | 22700
B13 | 14800

Same assay, conditions: double mutant 268A+411X; expected IC50 (additive values of single mutations); read-out: 268A+411— Expected IC50

Molecule | IC50 [µM]
B9 | 2540
B10 | 1740
B11 | 3910
B12 | 7120
B13 | 3730

Same assay, conditions: double mutant 268A+411X; measured versus expected additive IC50

Molecule | synergy of double mutant (measured vs expected additive IC50)
B9 | 4.6
B10 | 5.8
B11 | 3.0
B12 | 3.2
B13 | 4.0

Same assay, conditions: double mutant 268X+411A; averaged IC50 from Tables 8-11; read-out: 268_+411A Measured (merged IC50)

Molecule | IC50 [µM]
B14 | 9490
B15 | 9700
B16 | 9970
B17 | 16700
B18 | 1220
B19 | 5270
B20 | 6140

Same assay, conditions: double mutant 268X+411A; expected IC50 (additive values of single mutations)

Molecule | 268 +411A Expected IC50 [µM]
B14 | 1570
B15 | 1650
B16 | 1690
B17 | 1800
B18 | 1220
B19 | 1410
B20 | 1290

Same assay, conditions: double mutant 268X+411A; measured versus expected additive IC50

Molecule | 268_+411A Synergistic**↑
B14 | 6.0
B15 | 5.9
B16 | 5.9
B17 | 9.3
B18 | 1.0
B19 | 3.7
B20 | 4.8

Assay: 4-MUL assay, specific activity (Example 2)
Assay type: biochemical
Details: 268 single substitution
Procedure, shortened: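 CBH I variant supernatants (5 μg/mL final) hydrolysed 0.5 mM 4-MUL in 100 mM MES pH 6 with 25 mM gluconolactone to block BG, with or without cellobiose. Fluorescence (ex/em 365/450 nm) followed over the first 15 min for initial rates, plus a 1 h endpoint before and after carbonate quench. Specific activity from 4-MU standards and HPLC protein quantification.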

Molecule | 268— Measured Specific Activity (SA) [μmol 4 MU/min/mg CBH I] | 268— Δ SA* (change in specific activity; ratio of variant: WT)
B1 | 1.85 | 2.4
B2 | 1.81 | 2.4
B3 | 3.38 | 4.4

Same assay, conditions: 411 single substitution

Molecule | 411— Measured Specific Activity (SA) [μmol 4 MU/min/mg CBH I] | 411— Δ SA* (change in specific activity; ratio of variant: WT)
B4 | 0.60 | 0.8
B5 | 0.48 | 0.6
B6 | 0.60 | 0.8
B7 | 0.57 | 0.7
B8 | 0.70 | 0.9

Same assay, conditions: double mutant 268A+411X

Molecule | 268A+411— Measured Specific Activity (SA) [μmol 4 MU/min/mg CBH I] | 268A+411— Δ SA* (change in specific activity; ratio of variant: WT)
B9 | 1.78 | 2.3
B10 | 1.85 | 2.4
B11 | 1.78 | 2.3
B12 | – | 1.3
B13 | 1.78 | 2.3

Same assay, conditions: double mutant 268X+411A

Molecule | 268— +411 A Measured Specific Activity (SA) [μmol 4 MU/min/mg CBH I] | 268— +411 A Δ SA* (change in specific activity; ratio of variant: WT)
B14 | 1.43 | 1.9
B15 | 2.07 | 2.7
B16 | 1.37 | 1.8
B17 | 0.58 | 0.8
B18 | 0.53 | 0.7
B19 | 1.35 | 1.8
B20 | – | 0.7
